Test [1] addresses T1, His-tagged recombinant murine HtrA1 protease domain (murine, UniProt Q9R118 156-367).
T1 construct: His-tagged protease domain; also called muHtrA1-PD-His; muHtrA1-PD
The test can be described thus: SPR (BIACORE T100), single-cycle kinetics; biotinylated HtrA1-PD-His on streptavidin, Fab injected. The source says:
(§1) To determine the binding affinity of anti-HtrA1 Fabs by single-cycle kinetics, (SPR) measurement with a BIACORE™ T100 instrument was used. Briefly, a series S sensor chip CM5 was activated with 1-ethyl-3-(3-dimethylamino-propyl)carbodiimide hydrochloride (EDC) and N-hydroxysuccinimide (NHS) reagents according to the supplier's instructions, and streptavidin (Pierce) was coupled to achieve approximately 2500 response units (RU), followed by blocking un-reacted groups with 1 M ethanolamine.
(§2) For kinetics measurements, biotinylated human or murine HtrA1-PD-His was first injected at 10 μl/min flow rate to capture approximately 150 RU at 3 different flow cells (FC), except for FC1 (which served as a reference), and then 5-fold serial dilutions of anti-HtrA1 Fab in HBS-P buffer (0.01M HEPES pH 7.4, 0.15 M NaCl, 0.005% surfactant P20) from low (0.48 nM) to high (300 nM) were injected (flow rate: 30 μl/min) one after the other in the same cycle with no regeneration between injections. The sensorgram was recorded and subject to reference and buffer subtraction before evaluating by BIACORE™ T100 Evaluation Software (version 2.0). Association rates (kₒₙ) and dissociation rates (koff) were calculated using a simple one-to-one Langmuir binding model. The equilibrium dissociation constant (KD) was calculated as the ratio koff/kₒₙ.

The target of test [2] is T2, His-tagged human HtrA1 protease domain (human, UniProt Q92743 161-367).
T2 construct: His-tagged protease domain; also called huHtrA1-PD-His; huHtrA1-PD
T2 sequence (Q92743 other isoform, or with tags, fused parts or gaps limits assumed): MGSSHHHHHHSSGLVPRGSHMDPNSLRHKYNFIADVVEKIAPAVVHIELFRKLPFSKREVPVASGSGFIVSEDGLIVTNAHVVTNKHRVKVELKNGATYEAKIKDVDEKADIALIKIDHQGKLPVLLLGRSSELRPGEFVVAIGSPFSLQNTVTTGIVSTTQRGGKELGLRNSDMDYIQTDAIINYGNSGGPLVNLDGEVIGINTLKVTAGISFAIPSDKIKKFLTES
The description is as above.
From the text: as §1, §2

Test [3] concerns the target T2, His-tagged human HtrA1 protease domain. Put plainly: BIACORE SPR, single-cycle kinetics; Fab analyte over captured human HtrA1. On the technique in general: In SPR one partner is held on a chip, and binding of the other changes the refractive index at the surface.
For test [4] the target is unchanged. The test can be described thus: BIACORE T200 SPR; Fab analyte over huHtrA1-PD-His captured by anti-His antibody. The procedure: (§3) To determine the binding affinity of selected Fab variants for HtrA1, SPR measurement with a BIACORE™ T200 instrument was performed. Briefly, a series S sensor chip CM5 was activated with 1-EDC and NHS reagents according to the supplier's instructions, and anti-His antibody was coupled to achieve 200-300 response units (RU), then following by blocking un-reacted groups with 1 M ethanolamine. For kinetics measurements, approximately 5 nM of huHtrA1-PD-His was first injected at 10 μl/min flow rate to capture approximately 100 RU at 2 different flow cells (FC), except for FC1 (which served as a reference). Next, 5-fold serial dilutions of Fab in HBS-P buffer (0.01M HEPES pH 7.4, 0.15M NaCl, 0.005% surfactant P20) from low (0.8 nM) to high (50 nM) were injected (flow rate: 30 μl/min). The binding responses on HtrA1 were corrected by subtracting of RU from a blank flow cell. The sensorgram was recorded and subject to reference and buffer subtraction before evaluating by BIACORE® T200 Evaluation Software (version 2.0). Association rates (kₒₙ) and dissociation rates (koff) were calculated using a simple one-to-one Langmuir binding model. The equilibrium dissociation constant (KD) was calculated as the ratio of koff/kₒₙ.

For test [5] the target is unchanged. The test can be described thus: BIACORE SPR, Fab analyte, Human HtrA1-PD (N=2).
The target is the same in test [6]. The test can be described thus: SPR (BIACORE T200), huHtrA1-PD-His captured by anti-His, Fab injected. As for the experimental part: These combination mutants included both a variant light chain and a variant heavy chain. BIACORE™ kinetic analysis was performed (as described below in Section C) using the combination mutants.
as §3

Test [7] has the same target. Put plainly: BIACORE SPR, single-cycle kinetics; Fab analyte over captured human HtrA1. This is another data set of the same source.

B1: m15H6 Fab (Fab, V domains shown)
VH: QVQLQQSGAELVRPGASVTLSCKASGYTFTDSEMHWVKQTPVHGLEWIGGVDPETDGAAYNQKFKGKATLTADKSSSTAYMELRSLTSEDSAVYYCTRGYDYDYALDYWGQGTSVTVSS
VL: QIVLSQSPAILSASPGEKVTMTCRASSSVNFIHWYQQKPGSSPKPWISATSNLASGVPPRFSGSGSGTSYSLTISRVEAEDAATYYCQQWSSNPWTFGGGTKLEIK
notes: Tested as Fab; also called ml5H6 Fab; m15H6 in Fab format
For the molecule B1, in test [1], the equilibrium dissociation constant (Kd) turned out to be 0.3 nM, the off-rate constant (koff) was determined as 0.000163 s⁻¹ and the kon is 539000 M⁻¹ s⁻¹. In test [2], binding was characterised by a dissociation constant (Kd) of 0.31 nM, the koff was 0.000155 s⁻¹ and the association rate constant (kon) came out at 506000 M⁻¹ s⁻¹.

B2: AG (Fab, V domains shown)
VH: EVQLVQSGAEVKKPGASVKVSCKASGYTFTDSEMHWVRQAPGQGLEWIGGVDPETAGAAYNQKFKGRATITRDTSTSTAYLELSSLRSEDTAVYYCTRGYDYDYALDYWGQGTLVTVSS
VL: DIQMTQSPSSLSASVGDRVTITCRASSSVNFIHWYQQKPGKAPKPLISATSNLASGVPSRFSGSGSGTDFTLTISSLQPEDFATYYCQQWSSNPWTFGQGTKVEIK
notes: single member of the group m42; also called h15H6.v2 HC-D55A HC-G56 Fab
In test [3], B2 showed a dissociation constant (Kd) of 0.76 nM, a koff of 0.00035 s⁻¹ and a kon of 460000 M⁻¹ s⁻¹.

B3: APEG.LC347.HC13 (Fab, V domains shown)
VH: EVQLVQSGAEVKKPGASVKVSCKASGYKFKDSEMHWVRQAPGQGLEWIGGVDPETEGAAYNQKFKGRATITRDTSTSTAYLELSSLRSEDTAVYYCTRGYDYDYALDYWGQGTLVTVSS
VL: DIQMTQSPSSLSASVGDRVTITCRASSSVEFIHWYQQKPGKAPKPLISATSHLASGVPSRFSGSGSGTDFTLTISSLQPEDFATYYCQQWYSAPWTFGQGTKVEIK
notes: single member of the group m82
In test [4], B3 yielded a Kd of 0.131 nM, a koff of 4.88e-05 s⁻¹ and a kon of 371000 M⁻¹ s⁻¹.

B4: QP_EG (Fab, V domains shown)
VH: EVQLVQSGAEVKKPGASVKVSCKASGYTFTDSEMHWVRQAPGQGLEWIGGVDPETEGAAYNQKFKGRATITRDTSTSTAYLELSSLRSEDTAVYYCTRGYDYDYALDYWGQGTLVTVSS
VL: DIQMTQSPSSLSASVGDRVTITCRASSSVNFIHWYQQKPGKAPKPLISATSNLASGVPSRFSGSGSGTDFTLTISSLQPEDFATYYCQQWSSQPWTFGQGTKVEIK
notes: also called h15H6.v2 LC-N94Q LC-P95 HC-D55E HC-G56 Fab; copies: 1 + 1
B4: in test [5], the affinity, expressed as Kd, was 0.8 nM; the off-rate constant (koff) amounted to 0.00029 s⁻¹; the on-rate (kon) was 380000 M⁻¹ s⁻¹.

B5: combination mutant LC3.HC1 Fab (Fab, V domains shown)
VH: EVQLVQSGAEVKKPGASVKVSCKASGYTFKDSEMHWVRQAPGQGLEWIGGVDPETDGAAYNQKFKGRATITRDTSTSTAYLELSSLRSEDTAVYYCTRGYDYDYALDYWGQGTLVTVSS
VL: DIQMTQSPSSLSASVGDRVTITCRASSSVEFIHWYQQKPGKAPKPLISATSNLASGVPSRFSGSGSGTDFTLTISSLQPEDFATYYCQQWSSNPWTFGQGTKVEIK
notes: Fab
Molecule B5 yielded a Kd in test [4] of 0.0898 nM. Besides, in test [6], the dissociation constant Kd was 0.0889 nM, the koff is 7.95e-05 s⁻¹ and the on-rate constant (kon) was 885000 M⁻¹ s⁻¹.

B6: SG (Fab, V domains shown)
VH: EVQLVQSGAEVKKPGASVKVSCKASGYTFTDSEMHWVRQAPGQGLEWIGGVDPETSGAAYNQKFKGRATITRDTSTSTAYLELSSLRSEDTAVYYCTRGYDYDYALDYWGQGTLVTVSS
VL: DIQMTQSPSSLSASVGDRVTITCRASSSVNFIHWYQQKPGKAPKPLISATSNLASGVPSRFSGSGSGTDFTLTISSLQPEDFATYYCQQWSSNPWTFGQGTKVEIK
notes: single member of the group m42; also called h15H6.v2 HC-D55S HC-G56 Fab
Regarding B6, in test [3], the dissociation constant Kd worked out at 0.78 nM, the koff was 0.00032 s⁻¹ and the kon was determined as 410000 M⁻¹ s⁻¹.

B7: APEG.LC347.HC23 (Fab, V domains shown)
VH: EVQLVQSGAEVKKPGASVKVSCKASGYKFRDSEMHWVRQAPGQGLEWIGGVDPETEGAAYNQKFKGRATITRDTSTSTAYLELSSLRSEDTAVYYCTRGYDYDYALDYWGQGTLVTVSS
VL: DIQMTQSPSSLSASVGDRVTITCRASSSVEFIHWYQQKPGKAPKPLISATSHLASGVPSRFSGSGSGTDFTLTISSLQPEDFATYYCQQWYSAPWTFGQGTKVEIK
notes: as for B3
As for B7, in test [4], binding was characterised by a dissociation constant (Kd) of 0.163 nM, the off-rate (koff) stood at 6.47e-05 s⁻¹ and the on-rate constant (kon) came out at 397000 M⁻¹ s⁻¹.

B8: h15H6.v2 LC-N94A LC-P95 Fab (Fab, V domains shown)
VH: EVQLVQSGAEVKKPGASVKVSCKASGYTFTDSEMHWVRQAPGQGLEWIGGVDPETDGAAYNQKFKGRATITRDTSTSTAYLELSSLRSEDTAVYYCTRGYDYDYALDYWGQGTLVTVSS
VL: DIQMTQSPSSLSASVGDRVTITCRASSSVNFIHWYQQKPGKAPKPLISATSNLASGVPSRFSGSGSGTDFTLTISSLQPEDFATYYCQQWSSAPWTFGQGTKVEIK
notes: Produced as Fab; also called AP
In test [7], B8 registered a Kd of 0.31 nM, a koff of 0.00014 s⁻¹ and a kon of 450000 M⁻¹ s⁻¹.

B9: SP_EG (Fab, V domains shown)
VH: EVQLVQSGAEVKKPGASVKVSCKASGYTFTDSEMHWVRQAPGQGLEWIGGVDPETEGAAYNQKFKGRATITRDTSTSTAYLELSSLRSEDTAVYYCTRGYDYDYALDYWGQGTLVTVSS
VL: DIQMTQSPSSLSASVGDRVTITCRASSSVNFIHWYQQKPGKAPKPLISATSNLASGVPSRFSGSGSGTDFTLTISSLQPEDFATYYCQQWSSSPWTFGQGTKVEIK
notes: also called h15H6.v2 LC-N94S LC-P95 HC-D55E HC-G56 Fab; copies: 1 + 1
Consider B9, for which, in test [5], binding was put at a Kd of 0.8 nM, the koff came out at 0.00029 s⁻¹ and the on-rate constant (kon) stood at 350000 M⁻¹ s⁻¹.

B10: h15H6.v2 HC-D55E HC-G56 Fab (Fab, V domains shown)
VH: EVQLVQSGAEVKKPGASVKVSCKASGYTFTDSEMHWVRQAPGQGLEWIGGVDPETEGAAYNQKFKGRATITRDTSTSTAYLELSSLRSEDTAVYYCTRGYDYDYALDYWGQGTLVTVSS
VL: DIQMTQSPSSLSASVGDRVTITCRASSSVNFIHWYQQKPGKAPKPLISATSNLASGVPSRFSGSGSGTDFTLTISSLQPEDFATYYCQQWSSNPWTFGQGTKVEIK
notes: Produced as Fab; also called EG
B10: in test [3], the dissociation constant Kd came out at 0.55 nM, the koff stood at 0.00021 s⁻¹ and the kon came to 380000 M⁻¹ s⁻¹.

B11: DA (Fab, V domains shown)
VH: EVQLVQSGAEVKKPGASVKVSCKASGYTFTDSEMHWVRQAPGQGLEWIGGVDPETDAAAYNQKFKGRATITRDTSTSTAYLELSSLRSEDTAVYYCTRGYDYDYALDYWGQGTLVTVSS
VL: DIQMTQSPSSLSASVGDRVTITCRASSSVNFIHWYQQKPGKAPKPLISATSNLASGVPSRFSGSGSGTDFTLTISSLQPEDFATYYCQQWSSNPWTFGQGTKVEIK
notes: single member of the group m42; also called h15H6.v2 HC-D55 HC-G56A Fab
Regarding B11, in test [3], the dissociation constant (Kd) was 0.84 nM, the koff stood at 0.00027 s⁻¹ and the kon was found to be 320000 M⁻¹ s⁻¹.

B12: h15H6.v2 LC-N94E LC-P95 Fab (Fab, V domains shown)
VH: EVQLVQSGAEVKKPGASVKVSCKASGYTFTDSEMHWVRQAPGQGLEWIGGVDPETDGAAYNQKFKGRATITRDTSTSTAYLELSSLRSEDTAVYYCTRGYDYDYALDYWGQGTLVTVSS
VL: DIQMTQSPSSLSASVGDRVTITCRASSSVNFIHWYQQKPGKAPKPLISATSNLASGVPSRFSGSGSGTDFTLTISSLQPEDFATYYCQQWSSEPWTFGQGTKVEIK
notes: Produced as Fab; also called EP
On to B12, for which, in test [7], the Kd worked out at 0.33 nM, the koff is 0.00017 s⁻¹ and the on-rate (kon) is 520000 M⁻¹ s⁻¹.

B13: EP_EG (Fab, V domains shown)
VH: EVQLVQSGAEVKKPGASVKVSCKASGYTFTDSEMHWVRQAPGQGLEWIGGVDPETEGAAYNQKFKGRATITRDTSTSTAYLELSSLRSEDTAVYYCTRGYDYDYALDYWGQGTLVTVSS
VL: DIQMTQSPSSLSASVGDRVTITCRASSSVNFIHWYQQKPGKAPKPLISATSNLASGVPSRFSGSGSGTDFTLTISSLQPEDFATYYCQQWSSEPWTFGQGTKVEIK
notes: also called h15H6.v2 LC-N94E LC-P95 HC-D55E HC-G56 Fab; copies: 1 + 1
As to B13, in test [5], the Kd amounted to 0.4 nM, the koff is 0.00018 s⁻¹ and the kon was determined as 450000 M⁻¹ s⁻¹.

What is called Kd is the equilibrium constant for the complex coming apart. For orientation: koff means the first-order rate constant of dissociation. By kon is commonly meant a measure of how fast the partners come together.
